The values that follow come from the FLAb antibody collection (doi:10.7554/elife.23156).

B1: scFv; the commonest letter at each place (parent)
chain 1: EVKLDETGGGLVQPGRPMKLSCVASGFTFSDYWMNWVRQSPEKGLEWVAQIRNKPYNYETYYSDSVKGRFTISRDDSKSSVYLQMNNLRVEDMGIYYCTGSYYGMDYWGQGTSVTVS
chain 2: DVVMTQTPLSLPVSLGDQASISCRSSQSLVHSNGNTYLRWYLQKPGQSPKVLIYKVSNRFSGVPDRFSGSGSGTDFTLKISRVEAEDLGVYFCSQSTHVPWTFGGGTKLEIK

Variants of B1 are the subject of data set [1]. The experiment in a line: Kd (Tite-Seq). The settings on record: with fluorescein; format: scFv 4-4-20, heavy + light.
In data set [2] the parent is B1. The experiment in a line: yeast surface expression (ratio to wild type); higher = more expressed. To be noted: format: scFv 4-4-20, heavy + light.

In the case of chain 1 D106R Y107D, in data set [1], the Kd (commonly a measure of binding affinity in units of concentration) is no less than 10 µM. Besides, the yeast surface expression in data set [2] was found to be 0.462. For chain 1 D106R Y107N, the Kd in data set [1] was no less than 10 µM. In addition, the yeast surface expression in data set [2] is 0.359. On to chain 1 F29L Y32F, for which, in data set [1], the Kd was no less than 10 µM. Moreover, in data set [2], the yeast surface expression was determined as 0.72. The matching figures for chain 1 F29I Y32K: 0.00226 µM and 1.07.

As to chain 1 F29I Y32E, the Kd in data set [1] was no less than 10 µM. Also, in data set [2], the yeast surface expression amounted to 0.916. For the variant chain 1 F29I Y32G, in data set [1], the Kd is no less than 10 µM. Also, the yeast surface expression in data set [2] was 1.08. Regarding chain 1 D106S, the Kd in data set [1] amounted to 0.00279 µM. Further, the yeast surface expression in data set [2] is 1.16. For the variant chain 1 D106T, the Kd in data set [1] turned out to be 0.00785 µM. Moreover, the yeast surface expression in data set [2] came to 1.09. The matching figures for chain 1 D106Y: no less than 10 µM and 0.51. The matching figures for chain 1 D106W: no less than 10 µM and 0.339.

Turning to chain 1 D106V, the Kd in data set [1] is no less than 10 µM. Besides, the yeast surface expression in data set [2] stood at 0.734. For chain 1 F29L D31L, the Kd in data set [1] is no less than 10 µM. The yeast surface expression in data set [2] stood at 0.633.

For chain 1 F29L D31S, the Kd in data set [1] came to 0.972 µM. The yeast surface expression in data set [2] was determined as 0.743. As for chain 1 F29P W36E, the Kd in data set [1] is no less than 10 µM. Besides, in data set [2], the yeast surface expression turned out to be 0.482. Consider chain 1 F29P W36A, for which, in data set [1], the Kd is no less than 10 µM. The yeast surface expression in data set [2] is 0.456.

Turning to chain 1 F29Q V37A, in data set [1], the Kd is 5.66 µM. Besides, in data set [2], the yeast surface expression was 0.847. For the variant chain 1 F29Q V37M, in data set [1], the equilibrium dissociation constant (Kd) was found to be 0.00239 µM. In addition, the yeast surface expression in data set [2] turned out to be 1.09. As to chain 1 F29A W36H, in data set [1], the Kd is no less than 10 µM. Also, the yeast surface expression in data set [2] was determined as 0.912.

Turning to chain 1 F29A W36S, in data set [1], the Kd is no less than 10 µM. Moreover, in data set [2], the yeast surface expression is 0.313. In the same order, the values of chain 1 F29A W36A are no less than 10 µM and 0.822.

On to chain 1 D106W G109V, for which the Kd in data set [1] is no less than 10 µM. Besides, the yeast surface expression in data set [2] amounted to 0.0997. The matching figures for chain 1 D106W G109D: no less than 10 µM and 0.186.

As for chain 1 D106W G109A, the Kd in data set [1] is no less than 10 µM. Also, the yeast surface expression in data set [2] is 0.168. In the same order, the values of chain 1 D106W G109K are no less than 10 µM and 0.167.

For chain 1 F29I W33H M34P, the Kd in data set [1] is no less than 10 µM. In data set [2], the yeast surface expression stood at 0.518.

As for chain 1 D106Y G109D, the Kd in data set [1] is no less than 10 µM. Also, the yeast surface expression in data set [2] was 0.224. In the same order, the values of chain 1 D106Y G109Q are no less than 10 µM and 0.171. Take chain 1 D106Y G109K: in data set [1], the Kd was no less than 10 µM. Besides, the yeast surface expression in data set [2] was 0.136.

Take chain 1 F29I S30E: in data set [1], the Kd came out at 0.00343 µM. Further, the yeast surface expression in data set [2] amounted to 0.929. The matching figures for chain 1 F29I S30L: 0.676 µM and 0.564. As for chain 1 F29H V37R, the Kd in data set [1] amounted to 0.00707 µM. With chain 1 F29D M34I, the Kd in data set [1] was no less than 10 µM. For the same variant, the yeast surface expression in data set [2] is 0.946. Turning to chain 1 F29P Y32A, the Kd in data set [1] stood at 2.47 µM. The yeast surface expression in data set [2] is 1.12.

chain 1 F29P Y32P: the Kd in data set [1] was no less than 10 µM. Moreover, the yeast surface expression in data set [2] is 0.856. Regarding chain 1 D106R G109H, in data set [1], the Kd is no less than 10 µM. In data set [2], the yeast surface expression amounted to 0.486. As to chain 1 F29R D31K, the Kd in data set [1] was no less than 10 µM. Besides, the yeast surface expression in data set [2] is 0.343. As for chain 1 F29R D31G, the equilibrium dissociation constant (Kd) in data set [1] was no less than 10 µM. The yeast surface expression in data set [2] was determined as 0.755. In the same order, the values of chain 1 F29D W36H are no less than 10 µM and 0.505. With chain 1 F29Q S30D Y32A, the Kd in data set [1] was no less than 10 µM. Moreover, the yeast surface expression in data set [2] is 0.934.

As to chain 1 F29Q W36H, the Kd in data set [1] was no less than 10 µM. In data set [2], the yeast surface expression stood at 0.405. In the same order, the values of chain 1 F29Q W36T are no less than 10 µM and 0.359. Regarding chain 1 F29M V37Y, the Kd in data set [1] was 7.72 µM. In addition, the yeast surface expression in data set [2] was found to be 1.04. For the variant chain 1 F29I N35I, the Kd in data set [1] was no less than 10 µM. The yeast surface expression in data set [2] is 0.383. For the variant chain 1 F29I N35R, the Kd in data set [1] was no less than 10 µM. The yeast surface expression in data set [2] came to 0.852.

Turning to chain 1 F29I N35A, the Kd in data set [1] is no less than 10 µM. Besides, in data set [2], the yeast surface expression amounted to 0.817. Turning to chain 1 F29I N35P, the Kd in data set [1] is no less than 10 µM. Besides, the yeast surface expression in data set [2] amounted to 2.62. For the variant chain 1 F29M, the Kd in data set [1] turned out to be 0.00251 µM. Moreover, the yeast surface expression in data set [2] stood at 1.21.

Consider chain 1 F29N, for which the Kd in data set [1] was 5.24 µM. Further, in data set [2], the yeast surface expression came to 1.04.

As for chain 1 F29K, in data set [1], the Kd was no less than 10 µM. Further, the yeast surface expression in data set [2] amounted to 0.849. The matching figures for chain 1 F29R: no less than 10 µM and 0.758. Take chain 1 F29H: in data set [1], the Kd amounted to 3.74 µM. Besides, in data set [2], the yeast surface expression came out at 0.884. In the same order, the values of chain 1 F29A are 0.0221 µM and 0.974. For the variant chain 1 F29I, in data set [1], the Kd is 0.00325 µM. Besides, the yeast surface expression in data set [2] was found to be 1.01. The matching figures for chain 1 F29L: 0.0402 µM and 0.984. As to chain 1 F29C, in data set [1], the Kd was found to be 0.195 µM. Moreover, the yeast surface expression in data set [2] came to 0.885. In the same order, the values of chain 1 F29D are no less than 10 µM and 1.07. Turning to chain 1 F29P, in data set [1], the Kd worked out at 0.0318 µM. For the same variant, in data set [2], the yeast surface expression was found to be 1.05. As for chain 1 F29G, the Kd in data set [1] was no less than 10 µM. Besides, the yeast surface expression in data set [2] came out at 0.925.
